Assay results published in paper PMC3019082.
Residue numbers refer to the chain shown, from its start.

How the values were obtained:
Experiment in all cases: filter binding
I-SceI K86R/G100S = target: T1, I-SceI K86R/G100S (Saccharomyces cerevisiae, UniProt P03882 1-235, K86R;G100S)
T1 sequence: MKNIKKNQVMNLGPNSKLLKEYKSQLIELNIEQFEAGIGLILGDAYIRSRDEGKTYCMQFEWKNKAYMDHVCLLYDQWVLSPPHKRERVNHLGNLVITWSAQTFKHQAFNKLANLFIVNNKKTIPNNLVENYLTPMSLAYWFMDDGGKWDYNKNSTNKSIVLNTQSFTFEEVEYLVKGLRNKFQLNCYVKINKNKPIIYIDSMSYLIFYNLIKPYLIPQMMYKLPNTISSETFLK

I-SceI K86R/G100T = target: T2, I-SceI K86R/G100T (Saccharomyces cerevisiae, UniProt P03882 1-235, K86R;G100T)
T2 sequence: T1 sequence with S100T

I-SceI K86R/G100C = target: T3, I-SceI K86R/G100C (Saccharomyces cerevisiae, UniProt P03882 1-235, K86R;G100C)
T3 sequence: T1 sequence with S100C

I-SceI G100C = target: T4, I-SceI G100C (Saccharomyces cerevisiae, UniProt P03882 1-235, G100C)
T4 sequence: T1 sequence with R86K, S100C

I-SceI G100S = target: T5, I-SceI G100S (Saccharomyces cerevisiae, UniProt P03882 1-235, G100S)
T5 sequence: T1 sequence with R86K

[1] = target: T6, I-SceI wild type (K86/G100) (Saccharomyces cerevisiae, UniProt P03882 1-235)
T6 sequence: T1 sequence with R86K, S100G

I-SceI G100T = target: T7, I-SceI G100T (Saccharomyces cerevisiae, UniProt P03882 1-235, G100T)
T7 sequence: T1 sequence with R86K, S100T

I-SceI K86R = target: T8, I-SceI K86R (Saccharomyces cerevisiae, UniProt P03882 1-235, K86R)
T8 sequence: T1 sequence with S100G

I-SceI G100V = target: T9, I-SceI G100V (Saccharomyces cerevisiae, UniProt P03882 1-235, G100V)
T9 sequence: T1 sequence with R86K, S100V

B1: A/T+4 (WT) I-SceI target, filter binding duplex (dsDNA)
DNA 1: AACGAATAAAAGTTACGCTAGGGATAACAGGGTAATATAGCGAAAGAGTAGATATT
DNA 2: CAATATCTACTCTTTCGCTATATTACCCTGTTATCCCTAGCGTAACTTT
Kd (I-SceI K86R/G100S): 83 ± 27 nM | Kd (I-SceI K86R/G100T): 96 ± 16 nM | Kd (I-SceI K86R/G100C): 74 ± 12 nM | Kd (I-SceI G100C): 110 ± 30 nM | Kd (I-SceI G100S): 150 ± 26 nM | Kd [1]: 9 ± 3 nM | Kd (I-SceI G100T): 39 ± 13 nM | Kd (I-SceI K86R): 35 ± 5 nM | Kd (I-SceI G100V): 240 ± 51 nM

B2: C/G+4 I-SceI target, filter binding duplex (dsDNA)
DNA 1: B1 DNA 1 with A29C
DNA 2: B1 DNA 2 with T29G
Kd (I-SceI K86R/G100S): 23 ± 4.3 nM | Kd (I-SceI K86R/G100T): 8.2 ± 0.86 nM | Kd (I-SceI K86R/G100C): 7.5 ± 2.3 nM | Kd (I-SceI G100C): 34 ± 8.8 nM | Kd (I-SceI G100S): 32 ± 10 nM | Kd [1]: 20 ± 4.6 nM | Kd (I-SceI G100T): 10 ± 1.5 nM | Kd (I-SceI K86R): 39 ± 10 nM | Kd (I-SceI G100V): 230 ± 27 nM
